Non-standard residues stand in square brackets, D forms with d. No end group written: not given here. pS = N[C@@H](COP(=O)(O)O)C(=O)O
Tests used:
[1] = native MS of HspB1_77–171 oligomeric state; format: physicochemical; settings: 10 μM, 200 mM ammonium acetate pH 6.9, 10-fold molar excess DTT
Description: To test this hypothesis, we recorded mass spectra under conditions preserving noncovalent interactions. […] The combined NMR and mass spectrometry (MS) data are therefore consistent with phosphorylation modulating an order-to-disorder transition by β2 and the PPR that leads to oligomer dissociation via rearrangement of intradimer contacts.
A pET28d(+) vector encoding human HspB1 ACD (residues 84 to 171) was transformed into Escherichia coli BL21(DE3) cells (Agilent) and expressed and purified as described previously ([29]). For crystallography, residue K171 was deleted using a site-directed mutagenesis kit (Agilent) and HspB1_84–170 was expressed and purified as described. […] Concentrations were determined by using a bicinchoninic acid assay (Thermo Pierce).
Because HspB1 can form disulfide-linked dimers, experiments involving the ACD were performed in the presence of 10-fold molar excess DTT. […] Native MS and IM-MS data were recorded on a Synapt G1 mass spectrometer (Waters) modified for the transmission of intact noncovalent protein complexes. HspB1_77–171 variants were analyzed at a concentration of 10 μM in 200 mM ammonium acetate (pH 6.9). […]

[2] = target: filamin C (FLNC) domains 18-21, 1943-2408 (UniProt Q14315); experiment: gas-phase collisional dissociation, tandem native MS; settings: reference: unphosphorylated HspB1 80-88 peptide; sites S82
HspB1_84–170 = experiment: crystal structure of HspB1_84–170 with PPR peptide; format: binding, human; settings: X-ray, 5 mM peptide, space group P12_11, 2.1 Å
Description: We next carried out crystallographic trials, using a strategy of mixing peptide mimics of the PPR, varying in length and degree of phosphorylation, with a well-ordered ACD construct (HspB1_84–170). […] The monomers within each dimer differ at their N-terminal ends: The β2 strand of one is intramolecularly hydrogen-bonded to its own β3 strand, whereas in the other these residues are extended and stabilized by contacts with a β4-β8 groove of a neighboring dimer (Fig. 3, A and B). This groove also acts as a binding pocket for an intrasubunit interface within the C-terminal region (fig. S4B) ([29]).
Crystals were obtained following initial screens using HspB1_84–170 (18 mg ml^−1) with a fourfold molar excess of one of several peptide mimics of the N-terminal region varying in length and degree of phosphorylation. […]
Diffraction data were integrated using iMosflm and scaled and merged using Aimless in the CCP4 suite with truncation at 2.1 Å. Phases were determined by molecular replacement using Phaser with a previous HspB1 x-ray structure input as a search model (PDB 4MJH, modified by removal of flexible loops, bound C-terminal peptide, and β2 strands). […]

[3] = target: T1, HspB1_(84–170), ACD construct for crystallography (human, UniProt P04792 84-170); experiment: crystal structure; HspB1_(84–170) 16 mg/ml with 5 mM peptide in PBS pH 7.0; 22% PEG 3350, 0.02 M sodium potassium diphosphate, 0.1 M bis-tris propane pH 7.5; 2.1 Å, space group P12_(1)1; settings: both partners purified
T1 construct: human HspB1 ACD, residues 84 to 170 (K171 deleted from the 84-171 construct); Dimer in the crystal (four dimers in the asymmetric unit); The residual Gly-Ser overhang that the methods tell of 'both proteins' may also stand on this construct; also called HspB1 ACD

[4] = target: T2, human FLNC domains 18 to 21 (FLNC_(d18–21)), EEF-tagged (human, UniProt Q14315 1943-2408); experiment: cell-based or functional assay
T2 sequence (looked up): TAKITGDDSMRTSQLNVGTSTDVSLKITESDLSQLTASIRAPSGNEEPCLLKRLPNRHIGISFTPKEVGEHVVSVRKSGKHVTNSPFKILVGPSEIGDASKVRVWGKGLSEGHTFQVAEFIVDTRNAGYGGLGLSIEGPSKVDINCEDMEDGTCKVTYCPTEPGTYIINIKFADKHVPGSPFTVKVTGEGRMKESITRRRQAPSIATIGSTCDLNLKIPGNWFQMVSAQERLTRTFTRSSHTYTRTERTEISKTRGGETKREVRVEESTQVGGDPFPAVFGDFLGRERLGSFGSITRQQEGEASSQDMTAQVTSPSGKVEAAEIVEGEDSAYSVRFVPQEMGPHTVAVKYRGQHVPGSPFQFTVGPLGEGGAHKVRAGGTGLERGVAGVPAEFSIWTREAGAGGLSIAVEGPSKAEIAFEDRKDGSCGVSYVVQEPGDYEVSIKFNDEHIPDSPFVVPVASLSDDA

[5] = target: T3, FLNC_(d18–21,ΔI), FLNC domains 18 to 21 lacking the d20 insertion (human, UniProt Q14315 1943-2408, excluding 2163 to 2243); experiment: native MS; native IM-MS of mixtures of FLNC_(d18–21) or FLNC_(d18–21,ΔI) with HspB1_(84–171), HspB1 peptides or an excess of control peptides; 200 mM ammonium acetate pH 6.9; settings: both partners purified
T3 construct: human filamin C, residues 1943 to 2408 of UniProt Q14315 excluding 2163 to 2243; The results speak of 82 insertion residues; 2163 to 2243 are 81; source: E. coli BL21(DE3) pLysS, purified (HisTrap, SEC Superdex 200)
T3 sequence (looked up): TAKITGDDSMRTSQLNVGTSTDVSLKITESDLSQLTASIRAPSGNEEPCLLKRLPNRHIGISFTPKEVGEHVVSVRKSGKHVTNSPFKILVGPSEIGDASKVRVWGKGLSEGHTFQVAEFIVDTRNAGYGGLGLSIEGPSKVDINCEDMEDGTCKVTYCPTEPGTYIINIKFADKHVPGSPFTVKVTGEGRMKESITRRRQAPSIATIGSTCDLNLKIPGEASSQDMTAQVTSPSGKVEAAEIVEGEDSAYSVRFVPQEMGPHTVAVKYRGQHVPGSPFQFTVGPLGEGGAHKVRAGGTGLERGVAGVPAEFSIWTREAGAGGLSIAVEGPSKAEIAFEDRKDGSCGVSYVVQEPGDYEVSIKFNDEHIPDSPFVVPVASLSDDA

[6] = target: T2, human FLNC domains 18 to 21 …; experiment: as above; settings: both partners purified
[7] = target: T2, human FLNC domains 18 to 21 …; experiment: native MS; titration: FLNC_(d18–21) constant at 5 μM, peptide 5 to 160 μM, 200 mM ammonium acetate pH 6.9, acetonitrile vapor; fit with three equivalent binding sites (UniDec); settings: both partners purified

filamin C (FLNC) domains 18-21, 1943-2408, sequence (Q14315 whole entry, looked up, tested part not stated): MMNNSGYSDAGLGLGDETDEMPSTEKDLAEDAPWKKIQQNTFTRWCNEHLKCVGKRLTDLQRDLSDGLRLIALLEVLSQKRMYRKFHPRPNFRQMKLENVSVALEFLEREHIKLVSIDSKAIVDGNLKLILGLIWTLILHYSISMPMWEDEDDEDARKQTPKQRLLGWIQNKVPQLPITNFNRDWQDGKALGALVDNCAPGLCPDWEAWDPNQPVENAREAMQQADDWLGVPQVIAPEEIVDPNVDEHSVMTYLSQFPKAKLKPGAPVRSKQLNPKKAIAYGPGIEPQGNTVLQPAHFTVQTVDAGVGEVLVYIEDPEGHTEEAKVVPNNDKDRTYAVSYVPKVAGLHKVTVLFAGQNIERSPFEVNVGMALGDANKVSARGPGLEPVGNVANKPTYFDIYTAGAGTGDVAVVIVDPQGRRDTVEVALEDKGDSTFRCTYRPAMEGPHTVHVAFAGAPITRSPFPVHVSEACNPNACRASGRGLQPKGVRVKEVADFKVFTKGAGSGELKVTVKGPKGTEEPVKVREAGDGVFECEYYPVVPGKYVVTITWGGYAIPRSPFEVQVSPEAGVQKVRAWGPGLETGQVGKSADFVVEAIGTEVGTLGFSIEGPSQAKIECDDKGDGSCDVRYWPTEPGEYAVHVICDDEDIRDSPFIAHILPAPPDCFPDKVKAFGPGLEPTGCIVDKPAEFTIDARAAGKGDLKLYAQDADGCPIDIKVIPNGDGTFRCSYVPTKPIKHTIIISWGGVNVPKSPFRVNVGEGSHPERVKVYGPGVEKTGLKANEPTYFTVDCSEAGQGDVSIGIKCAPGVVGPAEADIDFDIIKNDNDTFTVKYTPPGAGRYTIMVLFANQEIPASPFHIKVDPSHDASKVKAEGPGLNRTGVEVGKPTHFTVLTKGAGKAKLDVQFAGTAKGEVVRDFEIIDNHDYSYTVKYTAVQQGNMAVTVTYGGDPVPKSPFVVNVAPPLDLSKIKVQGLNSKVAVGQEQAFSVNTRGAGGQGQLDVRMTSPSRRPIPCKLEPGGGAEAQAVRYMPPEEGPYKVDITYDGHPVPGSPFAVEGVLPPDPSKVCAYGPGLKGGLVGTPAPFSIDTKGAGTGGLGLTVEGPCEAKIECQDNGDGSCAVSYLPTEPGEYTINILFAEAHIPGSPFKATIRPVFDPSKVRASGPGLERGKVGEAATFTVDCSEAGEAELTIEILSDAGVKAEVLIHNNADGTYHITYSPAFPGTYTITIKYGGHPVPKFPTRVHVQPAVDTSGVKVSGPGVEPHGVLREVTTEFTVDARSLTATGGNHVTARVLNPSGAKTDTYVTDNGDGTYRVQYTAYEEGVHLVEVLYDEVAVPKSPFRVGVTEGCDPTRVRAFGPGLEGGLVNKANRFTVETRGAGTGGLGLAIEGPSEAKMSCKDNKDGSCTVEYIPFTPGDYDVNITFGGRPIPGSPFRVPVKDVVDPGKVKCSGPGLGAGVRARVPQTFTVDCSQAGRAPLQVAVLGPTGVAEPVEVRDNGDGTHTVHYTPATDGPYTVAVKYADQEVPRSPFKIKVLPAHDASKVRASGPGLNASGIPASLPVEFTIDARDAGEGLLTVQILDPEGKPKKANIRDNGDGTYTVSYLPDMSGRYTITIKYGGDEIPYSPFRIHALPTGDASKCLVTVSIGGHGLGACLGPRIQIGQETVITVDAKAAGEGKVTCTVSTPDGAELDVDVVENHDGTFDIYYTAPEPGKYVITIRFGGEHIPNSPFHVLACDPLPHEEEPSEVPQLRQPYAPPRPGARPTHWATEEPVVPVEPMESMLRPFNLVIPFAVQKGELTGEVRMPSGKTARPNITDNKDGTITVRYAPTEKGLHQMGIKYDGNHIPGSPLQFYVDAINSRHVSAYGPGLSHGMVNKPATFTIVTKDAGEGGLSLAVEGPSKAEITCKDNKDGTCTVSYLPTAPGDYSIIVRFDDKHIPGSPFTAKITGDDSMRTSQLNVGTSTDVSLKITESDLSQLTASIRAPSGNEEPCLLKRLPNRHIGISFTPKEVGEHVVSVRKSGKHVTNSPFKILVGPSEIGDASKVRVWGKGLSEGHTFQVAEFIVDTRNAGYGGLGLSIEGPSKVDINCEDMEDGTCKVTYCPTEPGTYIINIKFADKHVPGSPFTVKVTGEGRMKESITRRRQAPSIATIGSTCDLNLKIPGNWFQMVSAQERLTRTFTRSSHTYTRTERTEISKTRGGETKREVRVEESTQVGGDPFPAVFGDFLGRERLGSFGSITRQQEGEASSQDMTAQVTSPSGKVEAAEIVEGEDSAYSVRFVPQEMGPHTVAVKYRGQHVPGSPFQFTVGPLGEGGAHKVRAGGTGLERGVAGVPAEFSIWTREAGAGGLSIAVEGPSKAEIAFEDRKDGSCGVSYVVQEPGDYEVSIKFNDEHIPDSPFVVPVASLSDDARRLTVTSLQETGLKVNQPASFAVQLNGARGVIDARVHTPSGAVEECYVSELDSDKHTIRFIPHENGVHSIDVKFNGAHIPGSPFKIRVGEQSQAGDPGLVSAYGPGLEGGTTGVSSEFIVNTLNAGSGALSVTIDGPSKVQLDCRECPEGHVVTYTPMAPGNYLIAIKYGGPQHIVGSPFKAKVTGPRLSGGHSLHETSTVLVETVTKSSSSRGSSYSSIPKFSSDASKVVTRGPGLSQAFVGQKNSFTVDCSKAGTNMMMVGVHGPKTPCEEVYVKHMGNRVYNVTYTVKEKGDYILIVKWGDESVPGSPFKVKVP
T1 sequence (P04792 84-170): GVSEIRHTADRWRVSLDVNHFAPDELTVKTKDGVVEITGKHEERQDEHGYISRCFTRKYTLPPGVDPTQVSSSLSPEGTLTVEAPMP

HspB1_77–171: Human HspB1 ACD extended at the N-terminus to encompass the principle phosphorylation region (PPR)
oligomeric state [1]: populates a monomer-dimer equilibrium

^2PHspB1_77–171: Human HspB1 ACD and PPR with phosphomimic substitutions S78E and S82D
oligomeric state [1]: phosphomimicry shifts the oligomeric state toward the monomer

HspB1 (Hsp27) 80-88 (from UniProt P04792) pS82 HspB1 80-88 peptide
other: inflection point(s) of breakdown curve [2]: stronger; reference ≈55 and ≈110

ALSRQL^PSSGVSEI [^P82HspB1_76–88, Peptide from human HspB1 phosphorylated at S82, captured in part in crystal structure]
binding to HspB1_84–170 in crystal (HspB1_84–170): structure of HspB1_84–170 bound to ALSRQL^PSSGVSEI

B1: ^P82HspB1_(76–88), peptide mimic of the PPR phosphorylated at Ser82 (peptide)
peptide: ALSRQL[pS]SGVSEI
notes: human HspB1 residues 76 to 88; Only 3 to 6 residues of the peptide could be built in the density; also called PPR peptide; source: synthetic peptide, bought: Biomatik
binding result [3]: binds

B2: HspB1_(80–88) peptide (peptide, UniProt P04792 80-88, looked up)
peptide: QLSSGVSEI
notes: The methods say that N termini were acetylated 'when the N-terminal residue was Glu'; this peptide begins with Gln, so whether it was acetylated is open; also called unphosphorylated peptide; source: synthetic peptide, bought: Biomatik
activation required for the transition of unfolding intermediate B to final state C of FLNC_(d18–21) with one peptide bound (coulombically steered unfolding, IM-MS) [4]: ~60 V | binding result [5]: binds | stoichiometry N [6]: ≤ 2 | Kd [7]: 130 ± 17 µM | stoichiometry N [7]: ≤ 3

Reference: article PMC6530996, “HspB1 phosphorylation regulates its intramolecular dynamics and mechanosensitive molecular chaperone interaction with filamin C” (Science Advances, 2019)
